These results are taken from publication PMC7538418, “Structural basis for the transition from translation initiation to elongation by an 80S-eIF5B complex” (Nature Communications, 2020).

For this experiment, the target named is T1, eIF5B (residues 396–1002) (S. cerevisiae, UniProt P39730 396-1002).
T1 construct: translation initiation factor eIF5B (GTPase), Saccharomyces cerevisiae, residues 396-1002; also called eIF5B:GTP; eIF5B-GDP; source: prepared and characterized as described [11]
T1 sequence (looked up): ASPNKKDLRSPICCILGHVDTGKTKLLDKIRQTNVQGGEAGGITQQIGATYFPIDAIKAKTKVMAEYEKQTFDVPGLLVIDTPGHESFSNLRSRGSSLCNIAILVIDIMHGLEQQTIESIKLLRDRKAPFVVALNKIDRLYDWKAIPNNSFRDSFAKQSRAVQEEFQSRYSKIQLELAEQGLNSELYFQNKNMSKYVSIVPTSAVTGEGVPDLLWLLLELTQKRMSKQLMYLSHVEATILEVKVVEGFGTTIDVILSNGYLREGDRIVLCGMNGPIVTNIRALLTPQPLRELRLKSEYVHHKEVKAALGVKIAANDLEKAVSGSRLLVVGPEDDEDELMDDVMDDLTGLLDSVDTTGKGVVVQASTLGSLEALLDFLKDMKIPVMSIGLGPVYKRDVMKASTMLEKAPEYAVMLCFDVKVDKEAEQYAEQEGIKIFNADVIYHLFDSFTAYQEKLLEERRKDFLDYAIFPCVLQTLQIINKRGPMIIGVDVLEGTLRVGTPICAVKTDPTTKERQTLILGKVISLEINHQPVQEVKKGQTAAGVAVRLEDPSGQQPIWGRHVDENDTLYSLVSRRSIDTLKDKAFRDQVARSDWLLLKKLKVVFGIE
The experiment in a line: cryo-EM structure; 48S PICs mixed with eIF5B:GTP and 60S, frozen ~40 s after mixing; 30 mM HEPES-KOH pH 7.5, 100 mM KOAc, 10 mM Mg(OAc)2, 1 mM GTP:Mg2+; grids at 21 °C; uL16 within the 60S subunit. Conditions: both partners purified.

B1: ribosomal protein uL16 (natural protein, S. cerevisiae)
chain: RRPARCYRYQKNKPYPKSRYNRAVPDSKIRIYDLGKKKATVDEFPLCVHLVSNELEQLSSEALEAARICANKYMTTVSGRDAFHLRVRVHPFHVLRINKMLSCAGADRLQQGMRGAWGKPHGLAARVDIGQIIFSVRTKDSNKDVVVEGLRRARYKFPGQQKIILSKKWGFTNLDRPEYLKKREAGEVKDDGAFVKFLSKKGSLENNIREFPEYFA
notes: ribosomal protein uL16, component of the 60S large ribosomal subunit, Saccharomyces cerevisiae; Stood in the assay as a subunit of the whole 60S/80S ribosome, not as an isolated protein; source: in yeast Saccharomyces cerevisiae 60S ribosomal subunits, prepared as described [11]
In the case of B1, the binding result is “binds”.
